The text below walks through data of patent US20060258000A1, “Use of steady-state oxygen gradients to modulate animal cell functions” (priority 2003, published 2006).

Data set [1] has as its system CYP2B.
Experimental: Primary rat hepatocytes from 6-well plates or chamber slides were lysed and scraped in SDS buffered (10 mM Tris/HCl (ph 7.4), 0.1% SDS). Samples were added to microcentrifuge tubes with 5 μl of PMSF, homogenized with a pestle, and centrifuged at 16,200 g for 5 minutes. Total protein content in the supernatant was determined using the DC protein assay (Bio-Rad, Hercules, Calif.) and used to normalize sample loading. Samples prepared in sample buffer were loaded (10-20 μg/well) for electrophoresis on a 10% polyacrylamide gel. After overnight transfer on to a PVDF membrane, blots were incubated with a blocking buffered (20 mM Tris-Cl (pH 7.4), 500 mM NaCl, 0.1% Tween 20, and 5% (w/v) milk powder) and washed with buffer without milk powder, incubation for 1 h with primary antibody against rat PEPCK or rat CYP2B (Genset, Woburn, Mass.) was followed by washing and incubation with either anti-sheep (PEPCK) or anti-goat (CYP2B) HRP-conjugated secondary antibody for 45 minutes. After washing, the Pierce SuperSignal chemiluminescence reagent was used for detection. All electrophoresis gels were run with molecular mass markers to verify PEPCK bands (67 kDa) or CYP2B1/2 bands (56 kDa). Optical density measurements were obtained using scanned blot images with 1d gelscan software (Metamorph).
The subject of data set [2] is CYP3A.

B1: epidermal growth factor (protein, UniProt P01133 23-1207, looked up)
Pro-epidermal growth factor: PQHWSCPEGTLAGNGNSTCVGPAPFLIFSHGNSIFRIDTEGTNYEQLVVDAGVSVIMDFHYNEKRIYWVDLERQLLQRVFLNGSRQERVCNIEKNVSGMAINWINEEVIWSNQQEGIITVTDMKGNNSHILLSALKYPANVAVDPVERFIFWSSEVAGSLYRADLDGVGVKALLETSEKITAVSLDVLDKRLFWIQYNREGSNSLICSCDYDGGSVHISKHPTQHNLFAMSLFGDRIFYSTWKMKTIWIANKHTGKDMVRINLHSSFVPLGELKVVHPLAQPKAEDDTWEPEQKLCKLRKGNCSSTVCGQDLQSHLCMCAEGYALSRDRKYCEDVNECAFWNHGCTLGCKNTPGSYYCTCPVGFVLLPDGKRCHQLVSCPRNVSECSHDCVLTSEGPLCFCPEGSVLERDGKTCSGCSSPDNGGCSQLCVPLSPVSWECDCFPGYDLQLDEKSCAASGPQPFLLFANSQDIRHMHFDGTDYGTLLSQQMGMVYALDHDPVENKIYFAHTALKWIERANMDGSQRERLIEEGVDVPEGLAVDWIGRRFYWTDRGKSLIGRSDLNGKRSKIITKENISQPRGIAVHPMAKRLFWTDTGINPRIESSSLQGLGRLVIASSDLIWPSGITIDFLTDKLYWCDAKQSVIEMANLDGSKRRRLTQNDVGHPFAVAVFEDYVWFSDWAMPSVMRVNKRTGKDRVRLQGSMLKPSSLVVVHPLAKPGADPCLYQNGGCEHICKKRLGTAWCSCREGFMKASDGKTCLALDGHQLLAGGEVDLKNQVTPLDILSKTRVSEDNITESQHMLVAEIMVSDQDDCAPVGCSMYARCISEGEDATCQCLKGFAGDGKLCSDIDECEMGVPVCPPASSKCINTEGGYVCRCSEGYQGDGIHCLDIDECQLGEHSCGENASCTNTEGGYTCMCAGRLSEPGLICPDSTPPPHLREDDHHYSVRNSDSECPLSHDGYCLHDGVCMYIEALDKYACNCVVGYIGERCQYRDLKWWELRHAGHGQQQKVIVVAVCVVVLVMLLLLSLWGAHYYRTQKLLSKNPKNPYEESSRDVRSRRPADTEDGMSSCPQPWFVVIKEHQDLKNGGQPVAGEDGQAADGSMQPTSWRQEPQLCGMGTEQGCWIPVSSDKGSCPQVMERSFHMPSYGTQTLEGGVEKPHSLLSANPLWQQRALDPPHQMELTQ
modifications: Pro-epidermal growth factor
For the molecule B1, in data set [1], the “Effect of EGF on DEX-induced CYP2B spatial distribution” value is given as “significant shift in CYP2B spatial distribution was noted from inlet regions to the outlet”. Also, in data set [2], the “Effect of EGF on DEX-induced CYP3A induction” value was “remained uniform”.
